From paper PMC11574045, “A cofactor-induced repressive type of transcription factor condensation can be induced by synthetic peptides to suppress tumorigenesis” (The EMBO Journal, 2024)

Tested on: HEK293FT cells transfected with TF library
Test: Screening of TF condensates based on fluorescent puncta
Assay type: cell-based
Conditions: Figure 1B numerical data; TF library screen, one value per transcriptional factor
In short: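 HEK293FT, PEI transfection of TF library, 60 h; ±glucose 12 h; 4% PFA fix, 0.05% Triton X-100 permeabilization, 5% BSA block; anti-Flag/anti-GAL4 overnight at 4 °C, Alexa 488 secondary 1 h; high-content imaging, 50 fields/well.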

B1: ID4 (protein, UniProt P47928 1-161, looked up)
DNA-binding protein inhibitor …: MKAVSPVRPSGRKAPSGCGGGELALRCLAEHGHSLGGSAAAAAAAAAARCKAAEAAADEPALCLQCDMNDCYSRLRRLVPTIPPNKKVSKVEILQHVIDYILDLQLALETHPALLRQPPPPAPPHHPAGTCPAAPPRTPLTALNTDPAGAVNKQGDSILCR
Question: B1 was tested. Which “Z score of condensed fraction” value did it give?
Answer: -0.9102

B2: ARID5B (protein, UniProt Q14865 1-1188, looked up)
AT-rich interactive …: MEPNSLQWVGSPCGLHGPYIFYKAFQFHLEGKPRILSLGDFFFVRCTPKDPICIAELQLLWEERTSRQLLSSSKLYFLPEDTPQGRNSDHGEDEVIAVSEKVIVKLEDLVKWVHSDFSKWRCGFHAGPVKTEALGRNGQKEALLKYRQSTLNSGLNFKDVLKEKADLGEDEEETNVIVLSYPQYCRYRSMLKRIQDKPSSILTDQFALALGGIAVVSRNPQILYCRDTFDHPTLIENESICDEFAPNLKGRPRKKKPCPQRRDSFSGVKDSNNNSDGKAVAKVKCEARSALTKPKNNHNCKKVSNEEKPKVAIGEECRADEQAFLVALYKYMKERKTPIERIPYLGFKQINLWTMFQAAQKLGGYETITARRQWKHIYDELGGNPGSTSAATCTRRHYERLILPYERFIKGEEDKPLPPIKPRKQENSSQENENKTKVSGTKRIKHEIPKSKKEKENAPKPQDAAEVSSEQEKEQETLISQKSIPEPLPAADMKKKIEGYQEFSAKPLASRVDPEKDNETDQGSNSEKVAEEAGEKGPTPPLPSAPLAPEKDSALVPGASKQPLTSPSALVDSKQESKLCCFTESPESEPQEASFPSFPTTQPPLANQNETEDDKLPAMADYIANCTVKVDQLGSDDIHNALKQTPKVLVVQSFDMFKDKDLTGPMNENHGLNYTPLLYSRGNPGIMSPLAKKKLLSQVSGASLSSSYPYGSPPPLISKKKLIARDDLCSSLSQTHHGQSTDHMAVSRPSVIQHVQSFRSKPSEERKTINDIFKHEKLSRSDPHRCSFSKHHLNPLADSYVLKQEIQEGKDKLLEKRALPHSHMPSFLADFYSSPHLHSLYRHTEHHLHNEQTSKYPSRDMYRESENSSFPSHRHQEKLHVNYLTSLHLQDKKSAAAEAPTDDQPTDLSLPKNPHKPTGKVLGLAHSTTGPQESKGISQFQVLGSQSRDCHPKACRVSPMTMSGPKKYPESLSRSGKPHHVRLENFRKMEGMVHPILHRKMSPQNIGAARPIKRSLEDLDLVIAGKKARAVSPLDPSKEVSGKEKASEQESEGSKAAHGGHSGGGSEGHKLPLSSPIFPGLYSGSLCNSGLNSRLPAGYSHSLQYLKNQTVLSPLMQPLAFHSLVMQRGIFTSPTNSQQLYRHLAAATPVGSSYGDLLHNSIYPLAAINPQAAFPSSQLSSVHPSTKL
Question: Which “Z score of condensed fraction” value does the source give for B2 here?
Answer: -1.099

B3: HSBP1 (protein, UniProt O75506 1-76, looked up)
Heat shock factor-binding …: MAETDPKTVQDLTSVVQTLLQQMQDKFQTMSDQIIGRIDDMSSRIDDLEKNIADLMTQAGVEELESENKIPATQKS
Question: Which “Z score of condensed fraction” value does the source give for B3 here?
Answer: -0.06777

B4: IKZF1 (protein, UniProt Q13422 1-519, looked up)
DNA-binding protein Ikaros: MDADEGQDMSQVSGKESPPVSDTPDEGDEPMPIPEDLSTTSGGQQSSKSDRVVASNVKVETQSDEENGRACEMNGEECAEDLRMLDASGEKMNGSHRDQGSSALSGVGGIRLPNGKLKCDICGIICIGPNVLMVHKRSHTGERPFQCNQCGASFTQKGNLLRHIKLHSGEKPFKCHLCNYACRRRDALTGHLRTHSVGKPHKCGYCGRSYKQRSSLEEHKERCHNYLESMGLPGTLYPVIKEETNHSEMAEDLCKIGSERSLVLDRLASNVAKRKSSMPQKFLGDKGLSDTPYDSSASYEKENEMMKSHVMDQAINNAINYLGAESLRPLVQTPPGGSEVVPVISPMYQLHKPLAEGTPRSNHSAQDSAVENLLLLSKAKLVPSEREASPSNSCQDSTDTESNNEEQRSGLIYLTNHIAPHARNGLSLKEEHRAYDLLRAASENSQDALRVVSTSGEQMKVYKCEHCRVLFLDHVMYTIHMGCHGFRDPFECNMCGYHSQDRYEFSSHITRGEHRFHMS
Question: With B4 as the molecule, how does the “Z score of condensed fraction” value read?
Answer: 0.01528

B5: ING1L (protein, UniProt Q9H160 1-280, looked up)
Inhibitor of growth protein 2: MLGQQQQQLYSSAALLTGERSRLLTCYVQDYLECVESLPHDMQRNVSVLRELDNKYQETLKEIDDVYEKYKKEDDLNQKKRLQQLLQRALINSQELGDEKIQIVTQMLELVENRARQMELHSQCFQDPAESERASDKAKMDSSQPERSSRRPRRQRTSESRDLCHMANGIEDCDDQPPKEKKSKSAKKKKRSKAKQEREASPVEFAIDPNEPTYCLCNQVSYGEMIGCDNEQCPIEWFHFSCVSLTYKPKGKWYCPKCRGDNEKTMDKSTEKTKKDRRSR
Question: Which “Z score of condensed fraction” value does the source give for B5 here?
Answer: -0.141

B6: HSFX1 (protein, UniProt Q9UBD0 1-423, looked up)
Heat shock transcription …: MEDKRSLSMARCEERNSRGQDHGLERVPFPPQLQSETYLHPADPSPAWDDPGSTGSPNLRLLTEEIAFQPLAEEASFRRPHPDGDVPPQGEDNLLSLPFPQKLWRLVSSNQFSSIWWDDSGACRVINQKLFEKEILKRDVAHKVFATTSIKSFFRQLNLYGFRKRRQCTFRTFTRIFSAKRLVSILNKLEFYCHPYFQRDSPHLLVRMKRRVGVKSAPRHQEEDKPEAAGSCLAPADTEQQDHTSPNENDQVTPQHREPAGPNTQIRSGSAPPATPVMVPDSAVASDNSPVTQPAGEWSEGSQAHVTPVAAVPGPAALPFLYVPGSPTQMNSYGPVVALPTASRSTLAMDTTGLPAPGMLPFCHLWVPVTLVAAGAAQPAASMVMFPHLPALHHHCPHSHRTSQYMPASDGPQAYPDYADQST
Question: How did the “Z score of condensed fraction” value turn out when B6 was run?
Answer: -0.6149

B7: HSFY1 (protein, UniProt Q96LI6 1-401, looked up)
Heat shock transcription …: MAHVSSETQDVSPKDELTASEASTRSPLCEHTFPGDSDLRSMIEEHAFQVLSQGSLLESPSYTVCVSEPDKDDDFLSLNFPRKLWKIVESDQFKSISWDENGTCIVINEELFKKEILETKAPYRIFQTDAIKSFVRQLNLYGFSKIQQNFQRSAFLATFLSEEKESSVLSKLKFYYNPNFKRGYPQLLVRVKRRIGVKNASPISTLFNEDFNKKHFRAGANMENHNSALAAEASEESLFSASKNLNMPLTRESSVRQIIANSSVPIRSGFPPPSPSTSVGPSEQIATDQHAILNQLTTIHMHSHSTYMQARGHIVNFITTTTSQYHIISPLQNGYFGLTVEPSAVPTRYPLVSVNEAPYRNMLPAGNPWLQMPTIADRSAAPHSRLALQPSPLDKYHPNYN
Question: For B7, which “Z score of condensed fraction” value is on record?
Answer: 0.153

B8: ARL2BP (protein, UniProt Q9Y2Y0 1-163, looked up)
ADP-ribosylation factor-like …: MDALEGESFALSFSSASDAEFDAVVGYLEDIIMDDEFQLLQRNFMDKYYLEFEDTEENKLIYTPIFNEYISLVEKYIEEQLLQRIPEFNMAAFTTTLQHHKDEVAGDIFDMLLTFTDFLAFKEMFLDYRAEKEGRGLDLSSGLVVTSLCKSSSLPASQNNLRH
Question: Which “Z score of condensed fraction” value does the source give for B8 here?
Answer: 1.651

B9: IKZF2 (protein, UniProt Q9UKS7 1-526, looked up)
Zinc finger protein Helios: METEAIDGYITCDNELSPEREHSNMAIDLTSSTPNGQHASPSHMTSTNSVKLEMQSDEECDRKPLSREDEIRGHDEGSSLEEPLIESSEVADNRKVQELQGEGGIRLPNGKLKCDVCGMVCIGPNVLMVHKRSHTGERPFHCNQCGASFTQKGNLLRHIKLHSGEKPFKCPFCSYACRRRDALTGHLRTHSVGKPHKCNYCGRSYKQRSSLEEHKERCHNYLQNVSMEAAGQVMSHHVPPMEDCKEQEPIMDNNISLVPFERPAVIEKLTGNMGKRKSSTPQKFVGEKLMRFSYPDIHFDMNLTYEKEAELMQSHMMDQAINNAITYLGAEALHPLMQHPPSTIAEVAPVISSAYSQVYHPNRIERPISRETADSHENNMDGPISLIRPKSRPQEREASPSNSCLDSTDSESSHDDHQSYQGHPALNPKRKQSPAYMKEDVKALDTTKAPKGSLKDIYKVFNGEGEQIRAFKCEHCRVLFLDHVMYTIHMGCHGYRDPLECNICGYRSQDRYEFSSHIVRGEHTFH
Question: Which “Z score of condensed fraction” value does the source give for B9 here?
Answer: 1.456

B10: IFI16 (protein, UniProt Q16666 1-785, looked up)
Gamma-interferon-inducible …: MGKKYKNIVLLKGLEVINDYHFRMVKSLLSNDLKLNLKMREEYDKIQIADLMEEKFRGDAGLGKLIKIFEDIPTLEDLAETLKKEKLKVKGPALSRKRKKEVDATSPAPSTSSTVKTEGAEATPGAQKRKKSTKEKAGPKGSKVSEEQTQPPSPAGAGMSTAMGRSPSPKTSLSAPPNSSSTENPKTVAKCQVTPRRNVLQKRPVIVKVLSTTKPFEYETPEMEKKIMFHATVATQTQFFHVKVLNTSLKEKFNGKKIIIISDYLEYDSLLEVNEESTVSEAGPNQTFEVPNKIINRAKETLKIDILHKQASGNIVYGVFMLHKKTVNQKTTIYEIQDDRGKMDVVGTGQCHNIPCEEGDKLQLFCFRLRKKNQMSKLISEMHSFIQIKKKTNPRNNDPKSMKLPQEQRQLPYPSEASTTFPESHLRTPQMPPTTPSSSFFTKKSEDTISKMNDFMRMQILKEGSHFPGPFMTSIGPAESHPHTPQMPPSTPSSSFLTTKSEDTISKMNDFMRMQILKEGSHFPGPFMTSIGPAESHPHTPQMPPSTPSSSFLTTLKPRLKTEPEEVSIEDSAQSDLKEVMVLNATESFVYEPKEQKKMFHATVATENEVFRVKVFNIDLKEKFTPKKIIAIANYVCRNGFLEVYPFTLVADVNADRNMEIPKGLIRSASVTPKINQLCSQTKGSFVNGVFEVHKKNVRGEFTYYEIQDNTGKMEVVVHGRLTTINCEEGDKLKLTCFELAPKSGNTGELRSVIHSHIKVIKTRKNKKDILNPDSSMETSPDFFF
Question: For B10, which “Z score of condensed fraction” value is on record?
Answer: -0.2342

B11: HSF1 (protein, UniProt Q00613 1-529, looked up)
Heat shock factor protein 1: MDLPVGPGAAGPSNVPAFLTKLWTLVSDPDTDALICWSPSGNSFHVFDQGQFAKEVLPKYFKHNNMASFVRQLNMYGFRKVVHIEQGGLVKPERDDTEFQHPCFLRGQEQLLENIKRKVTSVSTLKSEDIKIRQDSVTKLLTDVQLMKGKQECMDSKLLAMKHENEALWREVASLRQKHAQQQKVVNKLIQFLISLVQSNRILGVKRKIPLMLNDSGSAHSMPKYSRQFSLEHVHGSGPYSAPSPAYSSSSLYAPDAVASSGPIISDITELAPASPMASPGGSIDERPLSSSPLVRVKEEPPSPPQSPRVEEASPGRPSSVDTLLSPTALIDSILRESEPAPASVTALTDARGHTDTEGRPPSPPPTSTPEKCLSVACLDKNELSDHLDAMDSNLDNLQTMLSSHGFSVDTSALLDLFSPSVTVPDMSLPDLDSSLASIQELLSPQEPPRPPEAENSSPDSGKQLVHYTAQPLFLLDPGSVDTGSNDLPVLFELGEGSYFSEGDGFAEDPTISLLTGSEPPKAKDPTVS
Question: With B11 as the molecule, how does the “Z score of condensed fraction” value read?
Answer: -1.041

B12: IDB3 (protein, UniProt Q02535 1-119, looked up)
DNA-binding protein inhibitor …: MKALSPVRGCYEAVCCLSERSLAIARGRGKGPAAEEPLSLLDDMNHCYSRLRELVPGVPRGTQLSQVEILQRVIDYILDLQVVLAEPAPGPPDGPHLPIQTAELTPELVISNDKRSFCH
Question: For B12, which “Z score of condensed fraction” value is on record?
Answer: -0.588
